Where a chain is given by its changes, count along the chain named. Names and notes keep the numbering of the source.
B1: SEQ ID NO: 65 (R26A; R52A; C151S) (peptide)
chain: NPLNKYIRHYEGLSYNVDSLHQKHQAAKRAVSHEDQFLRLDFHAHGRHFNLAMKRDTSLFSDEFKVETSNKVLDYDTSHIYTGHIYGEEGSFSHGSVIDGRFEGFIQTRGGTFYVEPAERYIKDRTLPFHSVIYHEDDINYPHKYGPQGGSADHSVFERMRKYQMTGVEEVTQIPQAEHAANGPELLRK
B2: SEQ ID NO: 34 (R29A; C151S; E177A) (peptide)
chain: B1 chain with A26R, R29A, A52R
B3: C-term PEG-SEQ ID NO: 69 (R29K; R55K; E177A) (peptide)
chain: B1 chain with A26R, R29K, A52R, R55K, S151C
modifications: 10 kDa maleimide PEG on a cysteine; printed as 'C-term PEG' in Table 5 (the listed changes keep Cys151, and paragraph 162 speaks of a cysteine at C151, or the N- or C-terminus, for SEQ ID NOs: 69-71)
B4: Cys151-pegylated SEQ ID NO: 5 (K28A; K54A) (peptide)
chain: B1 chain with A26R, K28A, A52R, K54A, S151C, A177E
modifications: 10 kDa maleimide PEG on Cys151
B5: SEQ ID NO: 5 (mut 1; K28A; K54A) (peptide)
chain: B1 chain with A26R, K28A, A52R, K54A, S151C, A177E
B6: SEQ ID NO: 66 (SEQ ID NO: 1/SEQ ID NO: 2 hybrid; R26A; R55A; C151S; E177A) (peptide)
chain: B1 chain with R39L, H48Q, A52R, R55A, L73P, Q107K, V115I, T126I
B7: SEQ ID NO: 62 (R29A; R55A; C151S; E177A) (peptide)
chain: B1 chain with A26R, R29A, A52R, R55A
B8: SEQ ID NO: 6 (mut2; K28A; K54A; C151S) (peptide)
chain: B1 chain with A26R, K28A, A52R, K54A, A177E
B9: SEQ ID NO: 63 (R29K; R55K; C151S; E177A) (peptide)
chain: B1 chain with A26R, R29K, A52R, R55K
B10: SEQ ID NO: 68 (R26A; R55A; C151S) (peptide)
chain: B1 chain with A52R, R55A
B11: SEQ ID NO: 9 (mut3; K28A; K54A; E88A; E177A) (peptide)
chain: B1 chain with A26R, K28A, A52R, K54A, E88A, S151C
B12: SEQ ID NO: 64 (SEQ ID NO: 2 with R29K; R55K; C151S) (peptide)
chain: NPLNKYIRHYEGLSYNVDSLHQKHQRAKKAVSHEDQFLLLDFHAHGRQFNLRMKKDTSLFSDEFKVETSNKVLDYDTSHIYTGHIYGEEGSFSHGSVIDGRFEGFIKTRGGTFYIEPAERYIKDRILPFHSVIYHEDDINYPHKYGPQGGSADHSVFERMRKYQMTGVEEGARAHPEKHAASSGPELLRK
B13: SEQ ID NO: 67 (SEQ ID NO: 1/SEQ ID NO: 2 hybrid; R26A; R52A; C151S) (peptide)
chain: B12 chain with R26A, K29R, L39R, Q48H, R52A, K55R, K107Q, I115V, I126T
B14: N-term PEG-SEQ ID NO: 70 (R29K; R55K; C151S; E177A) (peptide)
chain: CGSNPLNKYIRHYEGLSYNVDSLHQKHQRAKKAVSHEDQFLRLDFHAHGRHFNLRMKKDTSLFSDEFKVETSNKVLDYDTSHIYTGHIYGEEGSFSHGSVIDGRFEGFIQTRGGTFYVEPAERYIKDRTLPFHSVIYHEDDINYPHKYGPQGGSADHSVFERMRKYQMTGVEEVTQIPQAEHAANGPELLRK
modifications: 10 kDa maleimide PEG on a cysteine at the N-terminus ('N-term PEG')
B15: C-term PEG-SEQ ID NO: 71 (R29K; R55K; C151S; E177A) (peptide)
chain: NPLNKYIRHYEGLSYNVDSLHQKHQRAKKAVSHEDQFLRLDFHAHGRHFNLRMKKDTSLFSDEFKVETSNKVLDYDTSHIYTGHIYGEEGSFSHGSVIDGRFEGFIQTRGGTFYVEPAERYIKDRTLPFHSVIYHEDDINYPHKYGPQGGSADHSVFERMRKYQMTGVEEVTQIPQAEHAANGPELLRKGSGSC
modifications: 10 kDa maleimide PEG on a cysteine at the C-terminus ('C-term PEG')

The binders below were run against T1, Human ADAM10 from R & D Systems (human, UniProt O14672 214-672) (assay: cell-based or functional assay).
T1 sequence (looked up): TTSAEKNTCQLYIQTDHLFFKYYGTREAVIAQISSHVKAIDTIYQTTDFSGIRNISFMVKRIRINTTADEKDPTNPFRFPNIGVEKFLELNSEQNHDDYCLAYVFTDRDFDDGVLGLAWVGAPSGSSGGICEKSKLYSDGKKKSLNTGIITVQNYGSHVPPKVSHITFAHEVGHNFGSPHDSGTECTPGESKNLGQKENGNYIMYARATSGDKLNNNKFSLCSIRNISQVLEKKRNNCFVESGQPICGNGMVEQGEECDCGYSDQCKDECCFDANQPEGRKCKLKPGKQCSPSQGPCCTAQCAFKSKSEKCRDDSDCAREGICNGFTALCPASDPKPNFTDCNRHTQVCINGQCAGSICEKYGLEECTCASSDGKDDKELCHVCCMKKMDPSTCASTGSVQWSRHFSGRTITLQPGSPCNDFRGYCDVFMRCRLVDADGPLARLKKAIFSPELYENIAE
For B1, the “IC50 (nM), inhibition of ADAM10 cleavage of the fluorescent substrate PEPDAB064” value was 49 nM.
With B2 the “IC50 (nM), inhibition of ADAM10 cleavage of the fluorescent substrate PEPDAB064” value was 95 nM.
In the case of B3, the “IC50 (nM), inhibition of ADAM10 cleavage of the fluorescent substrate PEPDAB064” value is reported as 71 nM.
With B4 the “IC50 (nM), inhibition of ADAM10 cleavage of the fluorescent substrate PEPDAB064” value was 83 nM.
For B5, the “IC50 (nM), inhibition of ADAM10 cleavage of the fluorescent substrate PEPDAB064” value was 104 nM.
With B6 the “IC50 (nM), inhibition of ADAM10 cleavage of the fluorescent substrate PEPDAB064” value was 234 nM.
With B7 the “IC50 (nM), inhibition of ADAM10 cleavage of the fluorescent substrate PEPDAB064” value was 110 nM.
With B8 the “IC50 (nM), inhibition of ADAM10 cleavage of the fluorescent substrate PEPDAB064” value was 106 nM.
With B9 the “IC50 (nM), inhibition of ADAM10 cleavage of the fluorescent substrate PEPDAB064” value was 35 nM.
For B10, the “IC50 (nM), inhibition of ADAM10 cleavage of the fluorescent substrate PEPDAB064” value was 130 nM.
In the case of B11, the “IC50 (nM), inhibition of ADAM10 cleavage of the fluorescent substrate PEPDAB064” value is reported as 142 nM.
In the case of B12, the “IC50 (nM), inhibition of ADAM10 cleavage of the fluorescent substrate PEPDAB064” value is reported as 83 nM.
B13 was tested, and the “IC50 (nM), inhibition of ADAM10 cleavage of the fluorescent substrate PEPDAB064” value was 147 nM.
In the case of B14, the “IC50 (nM), inhibition of ADAM10 cleavage of the fluorescent substrate PEPDAB064” value is reported as 52 nM.
In the case of B15, the “IC50 (nM), inhibition of ADAM10 cleavage of the fluorescent substrate PEPDAB064” value is reported as 19 nM.

What follows are binders tested against T2, MMP 2 (UniProt P08253 30-660, limits assumed) (assay: cell-based or functional assay).
T2 sequence (looked up): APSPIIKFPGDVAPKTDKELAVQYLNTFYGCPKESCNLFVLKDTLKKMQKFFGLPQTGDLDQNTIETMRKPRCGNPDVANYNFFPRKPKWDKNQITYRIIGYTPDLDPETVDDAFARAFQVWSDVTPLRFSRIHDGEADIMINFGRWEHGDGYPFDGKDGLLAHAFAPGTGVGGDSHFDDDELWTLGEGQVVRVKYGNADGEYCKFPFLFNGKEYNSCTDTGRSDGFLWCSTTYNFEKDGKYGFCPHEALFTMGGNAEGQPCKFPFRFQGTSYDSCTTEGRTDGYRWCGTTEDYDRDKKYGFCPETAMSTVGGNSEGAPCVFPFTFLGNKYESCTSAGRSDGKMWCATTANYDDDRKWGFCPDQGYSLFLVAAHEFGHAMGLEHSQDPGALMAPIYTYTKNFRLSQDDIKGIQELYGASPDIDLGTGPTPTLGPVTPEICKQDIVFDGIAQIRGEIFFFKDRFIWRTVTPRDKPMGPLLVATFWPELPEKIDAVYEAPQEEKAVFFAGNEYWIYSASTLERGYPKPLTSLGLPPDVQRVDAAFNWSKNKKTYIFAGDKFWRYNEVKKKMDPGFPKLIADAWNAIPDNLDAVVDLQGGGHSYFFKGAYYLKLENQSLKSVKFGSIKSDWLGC
With B7 the “percent inhibition of MMP activity (PEPDAB008 substrate)” value (“percent inhibition of MMP activity” below) was 0 % at 8 µM.

The binders below were run against MMP 3 (UniProt P08254 18-477, limits assumed) (assay: cell-based or functional assay).
MMP 3, sequence (P08254 18-477 limits assumed): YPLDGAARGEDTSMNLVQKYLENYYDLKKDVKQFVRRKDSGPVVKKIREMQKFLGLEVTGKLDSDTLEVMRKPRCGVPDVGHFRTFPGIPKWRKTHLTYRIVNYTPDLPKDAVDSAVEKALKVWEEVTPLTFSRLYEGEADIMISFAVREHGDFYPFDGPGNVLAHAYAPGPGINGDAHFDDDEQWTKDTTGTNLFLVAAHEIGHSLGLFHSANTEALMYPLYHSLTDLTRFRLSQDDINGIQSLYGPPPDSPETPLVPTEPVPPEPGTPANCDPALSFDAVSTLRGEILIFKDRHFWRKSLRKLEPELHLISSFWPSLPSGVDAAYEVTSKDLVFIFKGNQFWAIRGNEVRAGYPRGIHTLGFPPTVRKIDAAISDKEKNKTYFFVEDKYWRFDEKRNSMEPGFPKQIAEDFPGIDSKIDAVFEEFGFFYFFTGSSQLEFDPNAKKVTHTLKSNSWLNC
In the case of B7, the “percent inhibition of MMP activity” value is reported as 0 % at 8 µM.

The binders below were run against MMP 9 (UniProt P14780 20-707, limits assumed) (assay: cell-based or functional assay).
MMP 9, sequence (P14780 20-707 limits assumed): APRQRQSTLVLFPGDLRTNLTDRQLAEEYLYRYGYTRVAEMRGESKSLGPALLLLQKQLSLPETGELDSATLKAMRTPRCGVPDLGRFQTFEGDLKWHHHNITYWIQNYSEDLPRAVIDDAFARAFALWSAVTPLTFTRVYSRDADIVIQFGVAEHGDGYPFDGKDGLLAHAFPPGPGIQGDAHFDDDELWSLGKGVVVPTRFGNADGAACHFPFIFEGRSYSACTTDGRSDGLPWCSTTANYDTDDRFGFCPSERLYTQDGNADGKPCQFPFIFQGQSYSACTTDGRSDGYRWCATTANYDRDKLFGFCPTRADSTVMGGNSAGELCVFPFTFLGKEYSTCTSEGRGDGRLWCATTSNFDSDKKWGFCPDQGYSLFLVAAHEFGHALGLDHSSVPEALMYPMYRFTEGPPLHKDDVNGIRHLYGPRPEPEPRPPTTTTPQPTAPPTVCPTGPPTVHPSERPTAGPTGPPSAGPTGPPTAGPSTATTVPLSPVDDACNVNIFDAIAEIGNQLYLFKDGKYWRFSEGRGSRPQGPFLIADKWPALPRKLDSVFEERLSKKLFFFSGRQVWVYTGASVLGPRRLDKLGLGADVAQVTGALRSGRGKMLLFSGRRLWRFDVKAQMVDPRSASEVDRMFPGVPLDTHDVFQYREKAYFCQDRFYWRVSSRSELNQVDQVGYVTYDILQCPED
In the case of B7, the “percent inhibition of MMP activity” value is reported as 0 % at 8 µM.

The binders below were run against MMP 12 (UniProt P39900 17-470, limits assumed) (assay: cell-based or functional assay).
MMP 12, sequence (P39900 17-470 limits assumed): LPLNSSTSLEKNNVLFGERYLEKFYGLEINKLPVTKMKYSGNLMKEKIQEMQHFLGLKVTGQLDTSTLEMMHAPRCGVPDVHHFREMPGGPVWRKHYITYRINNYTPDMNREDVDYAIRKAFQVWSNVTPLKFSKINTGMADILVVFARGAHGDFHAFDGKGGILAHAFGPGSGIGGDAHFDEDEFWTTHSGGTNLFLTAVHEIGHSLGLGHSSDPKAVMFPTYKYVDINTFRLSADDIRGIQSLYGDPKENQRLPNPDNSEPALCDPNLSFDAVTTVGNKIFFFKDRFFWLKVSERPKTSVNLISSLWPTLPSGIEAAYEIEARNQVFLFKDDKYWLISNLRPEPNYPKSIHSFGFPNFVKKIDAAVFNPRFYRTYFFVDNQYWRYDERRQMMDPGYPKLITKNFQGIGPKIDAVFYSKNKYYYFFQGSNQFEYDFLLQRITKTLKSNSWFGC
With B7 the “percent inhibition of MMP activity” value was 0 % at 8 µM.

What follows are binders tested against MMP 14 (UniProt P50281 21-538) (assay: cell-based or functional assay).
B7 was tested, and the “percent inhibition of MMP activity” value was 0 % at 8 µM.

The binders below were run against Meprin from R & D Systems (assay: cell-based or functional assay).
B1 was tested, and the “IC50 (nM), inhibition of meprin cleavage of the fluorescent substrate PEPDAB022” value was 289 nM.
For B2, the “IC50 (nM), inhibition of meprin cleavage of the fluorescent substrate PEPDAB022” value was 289 nM.
With B3 the “IC50, inhibition of meprin cleavage of the fluorescent substrate PEPDAB022” value (“IC50, inhibition” below) was roughly 5000 nM.
For B7, the “IC50 (nM), inhibition of meprin cleavage of the fluorescent substrate PEPDAB022” value was 817 nM.
With B9 the “IC50 (nM), inhibition of meprin cleavage of the fluorescent substrate PEPDAB022” value was 542 nM.
With B12 the “IC50 (nM), inhibition of meprin cleavage of the fluorescent substrate PEPDAB022” value was 682 nM.
B14 was tested, and the “IC50, inhibition” value was roughly 7000 nM.
In the case of B15, the “IC50, inhibition” value is reported as roughly 4000 nM.

— patent US20250207119A1 (VERRA THERAPEUTICS, published 2025)
